Test results published in US20180111991A1, “MODULATORS OF ACTIVIN AND METHODS FOR MODULATING IMMUNE RESPONSES AND T FOLLICULAR HELPER CELLS” (LA JOLLA INSTITUTE FOR ALLERGY AND IMMUNOLOGY, priority 2014, published 2018).
One block for each molecule: values may come before it.

Experiments:
SMAD2/3 [1] = assay: Analysis of phosphorylated SMAD2/3 in tonsil CD4 T cells; assay type: cell-based, human; conditions: tonsil naïve CD4 T cells, activin A+Galunisertib
Source text: (§1) Fresh PBMCs and tonsil mononuclear cells were serum-starved over night in AIM-V medium. […] Following stimulation, the cells were fixed in BD Phosflow™ Fix Buffer I (BD Biosciences), then permeabilized using BD Phosflow™ Perm Buffer III (BD Biosciences) following manufacture's instruction.

ALK4 = molecular target: T1, ALK4 (Homo sapiens, UniProt P36896); assay: SMAD2/3 inhibition experiments (ALK4 inhibitors) in Tfh differentiation; assay type: cell-based; conditions: activin A+IL-12, 5 days, vs vehicle (DMSO)
T1 construct: endogenous in cells; host or cells: primary human naive CD4+ T cells from PBMCs
T1 sequence (P36896 24-505): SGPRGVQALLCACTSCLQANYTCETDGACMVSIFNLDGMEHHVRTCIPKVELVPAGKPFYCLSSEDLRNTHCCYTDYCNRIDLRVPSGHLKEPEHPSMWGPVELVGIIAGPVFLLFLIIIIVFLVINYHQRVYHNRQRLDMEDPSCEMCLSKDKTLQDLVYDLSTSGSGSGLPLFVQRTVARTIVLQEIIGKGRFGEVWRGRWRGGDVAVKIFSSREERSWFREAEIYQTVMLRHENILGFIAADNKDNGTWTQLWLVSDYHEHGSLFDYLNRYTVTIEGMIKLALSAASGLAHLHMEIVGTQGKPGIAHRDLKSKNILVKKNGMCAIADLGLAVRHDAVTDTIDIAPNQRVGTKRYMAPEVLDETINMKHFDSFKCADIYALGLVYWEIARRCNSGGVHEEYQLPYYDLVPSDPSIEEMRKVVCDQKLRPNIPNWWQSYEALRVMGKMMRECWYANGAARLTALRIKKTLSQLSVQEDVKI

SMAD2/3 [2] = assay: Analysis of phosphorylated SMAD2/3 in blood naïve CD4 T cells; assay type: cell-based, human; conditions: activin A + SB 431542 (10 μM)
Source text: as §1

human naïve CD4 T cells [3] = assay: Intracellular cytokine staining after PMA/Ionomycin restimulation; assay type: cell-based; conditions: cells cultured with IL-12, PMA/Ionomycin re-stimulation
Description: (§2) For surface staining, primary-staining panels used for phenotypic analysis or for cell sorting known in the art were used. For the intranuclear staining: cells were treated with the FoxP3 Fixation/Permeabilization kit (eBioscience) and stained in Permeabilization buffer (eBioscience). For cytokine staining: day 3 or day 5 in vitro differentiated cells (specified in the main text or in figure legends) cells were stimulated for 5 hours at 37° C. with Phorbol 12-myristate 13-acetate (PMA, 25 ng/ml) and Ionomycin (1 μg/ml) in the presence of Brefeldin A (5 μg/ml). Cells were fixed with PBS 2% FBS, 1% PFA and permeabilized with PBS 2% FBS, 0.5% Saponin (from quillaja bark, Sigma-Aldrich). Samples were analyzed on a LSR Fortessa Cell Analyzer (BD, Bioscience). Flow cytometry data were analyzed with FlowJo (Tree Star). For cell sorting, cells were sorted using sorted using a FACS Aria (BD, Bioscience).

human naïve CD4 T cells [4] = assay: In vitro Tfh differentiation, PD-1 and CXCR5 expression by FACS; assay type: cell-based; conditions: for synergy with activin A on CXCR5 and PD-1 expression: IL-12 family cytokine added to activin A, serum-free conditions
Description: as §2
Unless differently specified, naïve CD4^+ T cells were enriched from PBMCs by magnetic bead negative selection with the Naïve CD4^+ T Cell Isolation Kit (Stem Cell Technologies). Purity (CD4^+CD45RA^+) was 90% or higher. Cells (7.5×10^4 cells/well) were activated by Dynabeads Human T-Activator CD3/CD28 (2 μl/well, Life Technologies) and cultured with recombinant human/mouse/rat activin A (50 ng/ml or 100 ng/ml), recombinant human IL-12 (5 ng/ml), recombinant human TGFβ (1 ng/ml), recombinant human IL-23 (10 ng/ml) or recombinant human IL-35 (10 ng/ml) in the presence of and recombinant human IL-7 (4 ng/ml) in AIM-V medium (Life Technologies). All cytokines were from R&D System and Peprotech. The 14 kDa mature human beta A chain of human activin A shares 100% amino acid sequence identity with bovine, feline, mouse, porcine, and rat beta A. Phenotype was quantified after 3 or 5 days, as specified in the main text of Figure legends. Similar results were obtained when using Treg-depleted FACS sorted naïve CD4 T cells, in which cells were sorted from total PBMCs by flow cytometry as CD19^−CD8^−CD14^−CD16^− CD4^+CD45RO^−CD25^− cells. For experiments quantifying supernatant CXCL13 concentration, cells were activated by plate-bound anti-human CD3 (5 μg/ml, BD) and ICOS-L (5 μg/ml, recombinant human B7-H2, R&D). CXCL13 concentrations were determined via human CXCL13 DuoSet ELISA (R&D) on supernatants harvested after 5 days of in vitro culture. For blocking experiments, cells were cultured with anti-activin A blocking mAb (5 μg/ml, clone 69403, R&D), anti-TGFβ mAb (100 μg/ml, clone 1D11.16.8, BioXcell), or equivalent concentration of mouse IgG1 isotype mAb (BioXcell). For blockade of IL-2, cells were cultured with anti-IL-2 blocking mAb (10 μg/ml, clone 5334, R&D) or mouse IgG1 isotype mAb (BioXcell).

[5] = system: autologous memory B cells; assay: T-B co-culture, B cell help; assay type: cell-based, human; conditions: T-B co-cultures
human naïve CD4 T cells [6] = assay: Screening of secretomics recombinant proteins for Tfh marker induction; assay type: cell-based; conditions: secretomics protein screen, anti-CD3/CD28 beads, 5 days, automated FACS
Description: FIG. 1A-D: Inhibin beta A (INHBA) emerged from the screen as potent regulator of human Tfh differentiation. (A) Schematic of primary screen. Purified human naïve CD4 T cells from a leukapheresis donor were stimulated by anti-CD3/CD28 beads on 384 well plates on day 0. The GNF secretomics recombinant proteins were added at the beginning of the stimulation. Each secretomics protein was tested in duplicate. After 5 days of in vitro culture, cells were evaluated by automated FACS analysis for the expression of Tfh signature markers, including CXCR5 and PD-1. (B) Primary screen results. Relative enrichment of PD-1^+CXCR5^+ cell induction is reported as Z score for each recombinant protein. INHBA gene product is shown in red. (C) CXCR5 and PD-1 expression from repeat experiment in which INHBA gene product was tested again for its capacity to induce Tfh-like differentiation. (D) Confocal microscopy of INHBA expression in human tonsils. Tonsil sections were stained with anti-INHBA (red) anti-BCL6 (blue) and anti-CD3 (green) Abs. An overlay from one donor representative of six is shown on the left panel. […]
Naïve CD4^+ T cells were isolated from leukapheresis-derived mononuclear cells via CliniMACS negative selection (Miltenyi Biotec). […] Induction of CXCR5 and PD-1 was assessed after 5 days of in vitro culture using automated FACS acquisition via HTS on LSR Fortessa (BD Biosciences). For each 384 well plate, mean and standard deviation of PD-1^+CXCR5^+ cell frequency induced by each individual recombinant proteins was determined and used to calculate the Z score. Z scores of replicate plates were analyzed independently.
To discover novel regulators of human Tfh cell differentiation, we performed an unbiased high throughput screen of a human extracellular proteome library consisting of over 2000 human proteins predicted or known to be cytokines, chemokines, morphogens, costimulatory receptors, or single pass transmembrane molecules^19. […] Following 5 days, expression of the Tfh signature markers CXCR5 and PD-1 were measured on the cells by flow cytometry, in an automated fashion. […]

- suppression of PD-1+CXCR5+ cell generation in response to activin A (ALK4): potent suppression
Molecule: Cc1cccc(-c2nn3c(c2-c2ccnc4ccc(C(N)=O)cc24)CCC3)n1 [Galunisertib, reference compound]
- inhibition of activin A-induced SMAD2/3 phosphorylation (SMAD2/3 [1]): abolished

Molecule: NC(=O)c1ccc(-c2nc(-c3ccc4c(c3)OCO4)c(-c3ccccn3)[nH]2)cc1 [SB 431542, reference compound]
- reduction of activin A-mediated SMAD2/3 phosphorylation (SMAD2/3 [2]): strong reduction

B1: IL-12: recombinant human cytokine (protein, UniProt P29459 23-219; P29460 23-328, looked up)
Interleukin-12 subunit alpha: RNLPVATPDPGMFPCLHHSQNLLRAVSNMLQKARQTLEFYPCTSEEIDHEDITKDKTSTVEACLPLELTKNESCLNSRETSFITNGSCLASRKTSFMMALCLSSIYEDLKMYQVEFKTMNAKLLMDPKRQIFLDQNMLAVIDELMQALNFNSETVPQKSSLEEPDFYKTKIKLCILLHAFRIRAVTIDRVMSYLNAS
Interleukin-12 subunit beta: IWELKKDVYVVELDWYPDAPGEMVVLTCDTPEEDGITWTLDQSSEVLGSGKTLTIQVKEFGDAGQYTCHKGGEVLSHSLLLLHKKEDGIWSTDILKDQKEPKNKTFLRCEAKNYSGRFTCWWLTTISTDLTFSVKSSRGSSDPQGVTCGAATLSAERVRGDNKEYEYSVECQEDSACPAAEESLPIEVMVDAVHKLKYENYTSSFFIRDIIKPDPPKNLQLKPLKNSRQVEVSWEYPDTWSTPHSYFSLTFCVQVQGKSKREKKDRVFTDKTSATVICRKNASISVRAQDRYYSSSWSEWASVPCS
- IL-21 production (human naïve CD4 T cells [3]): capable of producing IL-21
- synergy with activin A on CXCR5 and PD-1 expression (human naïve CD4 T cells [4]): enhanced
- contribution to B cell helper activity of in vitro differentiated Tfh cells [5]: driven entirely by IL-12

B2: IL-23: recombinant human cytokine of the IL-12 cytokine family (protein, UniProt Q9NPF7 20-189; P29460 23-328, looked up)
Interleukin-23 subunit alpha: RAVPGGSSPAWTQCQQLSQKLCTLAWSAHPLVGHMDLREEGDEETTNDVPHIQCGDGCDPQGLRDNSQFCLQRIHQGLIFYEKLLGSDIFTGEPSLLPDSPVGQLHASLLGLSQLLQPEGHHWETQQIPSLSPSQPWQRLLLRFKILRSLQAFVAVAARVFAHGAATLSP
Interleukin-12 subunit beta: B1 Interleukin-12 subunit beta
- synergy with TGFβ or activin A, induction of CXCR5+ or CXCR5+PD1+ cells (human naïve CD4 T cells [4]; FIG. 15, interleukin combined with TGFβ or activin A): synergizes with TGFβ or activin A but less potently than IL-12
- synergy with activin A on CXCR5 and PD-1 expression (human naïve CD4 T cells [4]): modest but detectable synergistic activity with activin A

B3: product of the Inhibin beta A gene (INHBA): secreted recombinant protein from the secretomics collection; forms the cytokine activin A as a homodimer (protein, UniProt P08476 311-426, looked up)
Inhibin beta A chain: GLECDGKVNICCKKQFFVSFKDIGWNDWIIAPSGYHANYCEGECPSHIAGTSGSSLSFHSTVINHYRMRGHSPFANLKSCCVPTKLRPMSMLYYDDGQNIIKKDIQNMIVEECGCS
modifications: Inhibin beta A chain
- induction of CXCR5 and PD-1 expression (PD-1+CXCR5+ cells) (human naïve CD4 T cells [6]): most potent inducer of CXCR5 and PD-1
